Results taken from article PMC8618983, “Investigation of the Transport Pathways Associated with Enhanced Brain Delivery of Peptide Drugs by Intranasal Coadministration with Penetratin” (Pharmaceutics, 2021).

Tests used:
[1] = design: species or system Sprague-Dawley rats; conditions: rat, in vivo
Description: We eluted the peptides with a 50 mM NaHCO3 solution and collected the eluted fractions containing the peptides. […] After adding 15 μL of trimethylamine to the Cy7-ester and peptide solution, we gently stirred the mixed solution overnight in the dark at room temperature. We desalted the resulting solution (1.94 mL) using a PD-10 column, eluted it with PBS (pH 7.4) with 0.001% methyl cellulose, and then adjusted its pH to 6.0. We obtained 4.0–6.0 mL of eluted solution and quantified the peptides by BCA assay or HPLC. We used the same analytical conditions for HPLC as previously described. […] We fed male Sprague-Dawley rats (seven weeks old) a nonfluorescent rodent diet (D10001) for a week before intranasal administration to avoid the intrinsic fluorescence of tissues. […] We performed the surgical procedure described by Hirai et al. to close the nasal cavity. Briefly, we incised the neck and cannulated the trachea and esophagus with polyethylene tubing (Hibiki No. 6) to maintain respiration and keep the solutions in the nasal cavity, respectively. We sealed the nasopalatine ducts with medical super glue (Aron Alpha A Sankyo, Daiichi-Sankyo Co., Ltd., Tokyo, Japan) to prevent the drainage of the solutions from the nasal cavity into the oral cavity. […] At the designated time points after administration (15, 30, and 60 or 120 min), we quickly exsanguinated the rats from the postcaval vein and flushed the administered solution by perfusion of PBS (pH 7.4). We decapitated the rats, carefully isolated the whole brain and right and left trigeminal nerves, and washed them with ice-cold PBS (pH 7.4). We placed the brain samples onto a brain matrix (MK-RC-01, Muromachi Kikai Co., Ltd., Tokyo, Japan) and sliced with blades (TCB-100) into twelve 2 mm-thick fractions. We placed the sliced brain and trigeminal nerve samples on a silicon board and mounted them on the stage of an in vivo imaging system (IVIS Lumina XR, Caliper Life sciences, Inc., Waltham, MA, USA). […] We quantified the fluorescence intensity of the region of interest of the images based on their contrast. To calculate the fluorescence intensity derived from Cy7 in the tissues, we subtracted the intrinsic fluorescence of an untreated area from the total intensity.

[2] = in vivo; cited from earlier work
Excerpt: During the permeation through the nasal mucosa, drugs come across microvascular vessels in the lamina propria directed toward the systemic circulation before reaching the brain or cerebrospinal fluid (CSF).

Row | Substance | distribution in the trigeminal nerves [1] | distribution ratio (olfactory bulb/trigeminal nerves) [1] | delivery to the brain by intranasal coadministration with L-penetratin [2]
1 | Cy7-Exendin-4: Exendin-4 labeled with the Cy7 fluorescent dye via Cy7 Mono NHS Ester | high even without L-penetratin | dominantly increased | –
2 | Cy7-insulin: insulin labeled with the Cy7 fluorescent dye via Cy7 Mono NHS Ester | high even without L-penetratin | dominantly increased | –
3 | leptin | – | – | significantly increased
